The target of this experiment is T1, alpha1a adrenergic receptor (Homo sapiens, UniProt P35348).
T1 sequence (P35348 1-466): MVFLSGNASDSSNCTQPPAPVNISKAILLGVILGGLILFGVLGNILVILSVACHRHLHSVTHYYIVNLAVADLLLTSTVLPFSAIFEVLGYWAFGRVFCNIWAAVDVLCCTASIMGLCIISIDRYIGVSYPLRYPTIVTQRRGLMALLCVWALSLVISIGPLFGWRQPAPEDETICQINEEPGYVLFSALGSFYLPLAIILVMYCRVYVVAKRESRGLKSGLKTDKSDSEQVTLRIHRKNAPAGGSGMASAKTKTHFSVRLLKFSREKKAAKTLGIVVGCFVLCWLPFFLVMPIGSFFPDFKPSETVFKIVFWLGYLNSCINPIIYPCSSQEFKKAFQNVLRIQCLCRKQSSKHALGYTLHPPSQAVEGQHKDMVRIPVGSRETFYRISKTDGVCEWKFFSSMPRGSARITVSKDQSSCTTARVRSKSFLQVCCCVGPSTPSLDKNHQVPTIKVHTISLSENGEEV
As to the kind of experiment: hot saturation of 125I-AdTx1 on yeast membranes expressing the alpha1a adrenergic receptor. The conditions noted are these: read-out: high-affinity specific binding (saturation) to the alpha1a adrenergic receptor; 20 μg yeast membranes, 20 h.

Method: The analysis of the saturation of the alpha1a adrenergic receptor with AdTx1 is carried out by incubating increasing concentrations of the iodinated peptide in the presence of 20 μg of membranes containing the alpha1a adrenergic receptor, for 20 h, and then measuring the radioactivity as above.

B1: ^125I-AdTx1: radiolabeled (iodinated) AdTx1 peptide (peptide)
peptide: LTCVTSKSIFGITTEDCPDGQNLCFKRRHYVVPKIYDSTRGCAATCPIPENYDSIHCCKTDKCNE
modifications: also: radioiodinated (125I), place not given here
B1: the Kd was 800 ± 200 pM.

The values are drawn from US20110117017A1, “PEPTIDES WITH PROPERTIES OF AN […] FOR THE ALPHA 1A […] RECEPTOR AND USES THEREOF” (priority 2006, published 2011).
